According to IntAct's records for PubMed 19219046:

Target: DDX19B, Q9UMR2-1
Sequence (Q9UMR2 whole entry): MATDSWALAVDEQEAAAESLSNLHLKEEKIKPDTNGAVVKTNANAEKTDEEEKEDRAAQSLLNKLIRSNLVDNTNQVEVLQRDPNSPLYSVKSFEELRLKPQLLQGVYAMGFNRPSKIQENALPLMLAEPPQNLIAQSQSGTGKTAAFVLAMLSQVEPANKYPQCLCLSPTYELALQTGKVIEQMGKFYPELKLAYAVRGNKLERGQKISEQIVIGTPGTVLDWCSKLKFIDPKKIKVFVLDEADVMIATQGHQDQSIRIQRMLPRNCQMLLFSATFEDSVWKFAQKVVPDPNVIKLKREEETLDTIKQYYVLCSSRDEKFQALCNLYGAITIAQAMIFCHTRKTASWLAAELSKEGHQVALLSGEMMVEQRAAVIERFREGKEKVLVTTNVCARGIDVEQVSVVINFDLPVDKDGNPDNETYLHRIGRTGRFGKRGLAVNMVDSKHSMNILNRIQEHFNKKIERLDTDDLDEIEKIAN

Chain of Nuclear pore complex protein Nup214 (Homo sapiens), P35658-1 D359R (P35658 whole entry D359R, one chain of several): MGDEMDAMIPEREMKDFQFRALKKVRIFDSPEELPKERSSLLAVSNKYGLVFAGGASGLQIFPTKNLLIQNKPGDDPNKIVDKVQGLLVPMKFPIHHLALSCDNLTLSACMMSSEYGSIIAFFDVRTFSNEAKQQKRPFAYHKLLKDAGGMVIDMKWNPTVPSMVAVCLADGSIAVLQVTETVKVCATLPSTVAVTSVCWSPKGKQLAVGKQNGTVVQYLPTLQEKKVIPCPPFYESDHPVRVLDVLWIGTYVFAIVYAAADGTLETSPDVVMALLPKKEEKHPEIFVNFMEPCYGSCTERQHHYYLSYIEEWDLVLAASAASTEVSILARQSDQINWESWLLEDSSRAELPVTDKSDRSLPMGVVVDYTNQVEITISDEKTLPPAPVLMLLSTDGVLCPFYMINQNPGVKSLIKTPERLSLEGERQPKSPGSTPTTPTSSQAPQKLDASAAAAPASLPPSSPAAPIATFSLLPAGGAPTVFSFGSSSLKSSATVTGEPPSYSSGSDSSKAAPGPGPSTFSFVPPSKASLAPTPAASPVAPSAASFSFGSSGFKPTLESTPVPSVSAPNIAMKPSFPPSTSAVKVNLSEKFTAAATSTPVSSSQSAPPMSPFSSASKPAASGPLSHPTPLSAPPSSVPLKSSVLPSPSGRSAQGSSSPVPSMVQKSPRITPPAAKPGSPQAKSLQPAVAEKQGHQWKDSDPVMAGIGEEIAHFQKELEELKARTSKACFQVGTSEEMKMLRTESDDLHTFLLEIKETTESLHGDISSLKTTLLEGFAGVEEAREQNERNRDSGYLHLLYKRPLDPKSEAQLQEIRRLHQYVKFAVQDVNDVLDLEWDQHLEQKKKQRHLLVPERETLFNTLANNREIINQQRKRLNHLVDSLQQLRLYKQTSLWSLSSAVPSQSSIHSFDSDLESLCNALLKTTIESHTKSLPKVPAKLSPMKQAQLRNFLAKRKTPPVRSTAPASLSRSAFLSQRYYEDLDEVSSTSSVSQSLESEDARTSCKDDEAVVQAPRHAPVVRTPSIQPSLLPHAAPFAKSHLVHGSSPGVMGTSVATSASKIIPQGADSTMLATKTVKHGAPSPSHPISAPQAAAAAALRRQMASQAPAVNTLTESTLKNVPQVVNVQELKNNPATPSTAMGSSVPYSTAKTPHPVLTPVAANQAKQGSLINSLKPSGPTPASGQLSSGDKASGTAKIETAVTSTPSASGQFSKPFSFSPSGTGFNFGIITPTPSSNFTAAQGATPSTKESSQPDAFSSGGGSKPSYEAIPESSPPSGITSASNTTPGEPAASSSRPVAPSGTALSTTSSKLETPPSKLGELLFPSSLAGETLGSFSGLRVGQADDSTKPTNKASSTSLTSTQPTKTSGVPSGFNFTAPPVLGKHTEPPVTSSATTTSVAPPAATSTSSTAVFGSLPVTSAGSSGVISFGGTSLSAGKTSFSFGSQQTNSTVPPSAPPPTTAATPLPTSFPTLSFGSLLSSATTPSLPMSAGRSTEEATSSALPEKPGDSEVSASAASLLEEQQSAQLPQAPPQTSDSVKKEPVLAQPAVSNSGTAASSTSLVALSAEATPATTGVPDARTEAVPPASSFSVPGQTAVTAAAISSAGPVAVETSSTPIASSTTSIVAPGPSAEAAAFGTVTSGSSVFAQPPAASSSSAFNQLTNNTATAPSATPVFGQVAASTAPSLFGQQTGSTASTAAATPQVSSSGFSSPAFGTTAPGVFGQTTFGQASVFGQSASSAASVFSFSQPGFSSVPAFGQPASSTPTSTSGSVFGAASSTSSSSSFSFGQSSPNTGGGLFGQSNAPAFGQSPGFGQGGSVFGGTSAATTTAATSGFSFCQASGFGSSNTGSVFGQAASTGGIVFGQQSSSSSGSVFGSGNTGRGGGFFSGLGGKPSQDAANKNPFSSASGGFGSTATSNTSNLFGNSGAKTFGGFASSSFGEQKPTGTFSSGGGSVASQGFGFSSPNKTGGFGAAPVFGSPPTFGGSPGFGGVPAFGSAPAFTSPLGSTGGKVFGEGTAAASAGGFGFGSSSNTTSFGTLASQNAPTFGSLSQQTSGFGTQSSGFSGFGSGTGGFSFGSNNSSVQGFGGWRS
Chain of Nuclear pore complex protein Nup214 (Homo sapiens), P35658-1 V353A (P35658 whole entry V353A, one chain of several): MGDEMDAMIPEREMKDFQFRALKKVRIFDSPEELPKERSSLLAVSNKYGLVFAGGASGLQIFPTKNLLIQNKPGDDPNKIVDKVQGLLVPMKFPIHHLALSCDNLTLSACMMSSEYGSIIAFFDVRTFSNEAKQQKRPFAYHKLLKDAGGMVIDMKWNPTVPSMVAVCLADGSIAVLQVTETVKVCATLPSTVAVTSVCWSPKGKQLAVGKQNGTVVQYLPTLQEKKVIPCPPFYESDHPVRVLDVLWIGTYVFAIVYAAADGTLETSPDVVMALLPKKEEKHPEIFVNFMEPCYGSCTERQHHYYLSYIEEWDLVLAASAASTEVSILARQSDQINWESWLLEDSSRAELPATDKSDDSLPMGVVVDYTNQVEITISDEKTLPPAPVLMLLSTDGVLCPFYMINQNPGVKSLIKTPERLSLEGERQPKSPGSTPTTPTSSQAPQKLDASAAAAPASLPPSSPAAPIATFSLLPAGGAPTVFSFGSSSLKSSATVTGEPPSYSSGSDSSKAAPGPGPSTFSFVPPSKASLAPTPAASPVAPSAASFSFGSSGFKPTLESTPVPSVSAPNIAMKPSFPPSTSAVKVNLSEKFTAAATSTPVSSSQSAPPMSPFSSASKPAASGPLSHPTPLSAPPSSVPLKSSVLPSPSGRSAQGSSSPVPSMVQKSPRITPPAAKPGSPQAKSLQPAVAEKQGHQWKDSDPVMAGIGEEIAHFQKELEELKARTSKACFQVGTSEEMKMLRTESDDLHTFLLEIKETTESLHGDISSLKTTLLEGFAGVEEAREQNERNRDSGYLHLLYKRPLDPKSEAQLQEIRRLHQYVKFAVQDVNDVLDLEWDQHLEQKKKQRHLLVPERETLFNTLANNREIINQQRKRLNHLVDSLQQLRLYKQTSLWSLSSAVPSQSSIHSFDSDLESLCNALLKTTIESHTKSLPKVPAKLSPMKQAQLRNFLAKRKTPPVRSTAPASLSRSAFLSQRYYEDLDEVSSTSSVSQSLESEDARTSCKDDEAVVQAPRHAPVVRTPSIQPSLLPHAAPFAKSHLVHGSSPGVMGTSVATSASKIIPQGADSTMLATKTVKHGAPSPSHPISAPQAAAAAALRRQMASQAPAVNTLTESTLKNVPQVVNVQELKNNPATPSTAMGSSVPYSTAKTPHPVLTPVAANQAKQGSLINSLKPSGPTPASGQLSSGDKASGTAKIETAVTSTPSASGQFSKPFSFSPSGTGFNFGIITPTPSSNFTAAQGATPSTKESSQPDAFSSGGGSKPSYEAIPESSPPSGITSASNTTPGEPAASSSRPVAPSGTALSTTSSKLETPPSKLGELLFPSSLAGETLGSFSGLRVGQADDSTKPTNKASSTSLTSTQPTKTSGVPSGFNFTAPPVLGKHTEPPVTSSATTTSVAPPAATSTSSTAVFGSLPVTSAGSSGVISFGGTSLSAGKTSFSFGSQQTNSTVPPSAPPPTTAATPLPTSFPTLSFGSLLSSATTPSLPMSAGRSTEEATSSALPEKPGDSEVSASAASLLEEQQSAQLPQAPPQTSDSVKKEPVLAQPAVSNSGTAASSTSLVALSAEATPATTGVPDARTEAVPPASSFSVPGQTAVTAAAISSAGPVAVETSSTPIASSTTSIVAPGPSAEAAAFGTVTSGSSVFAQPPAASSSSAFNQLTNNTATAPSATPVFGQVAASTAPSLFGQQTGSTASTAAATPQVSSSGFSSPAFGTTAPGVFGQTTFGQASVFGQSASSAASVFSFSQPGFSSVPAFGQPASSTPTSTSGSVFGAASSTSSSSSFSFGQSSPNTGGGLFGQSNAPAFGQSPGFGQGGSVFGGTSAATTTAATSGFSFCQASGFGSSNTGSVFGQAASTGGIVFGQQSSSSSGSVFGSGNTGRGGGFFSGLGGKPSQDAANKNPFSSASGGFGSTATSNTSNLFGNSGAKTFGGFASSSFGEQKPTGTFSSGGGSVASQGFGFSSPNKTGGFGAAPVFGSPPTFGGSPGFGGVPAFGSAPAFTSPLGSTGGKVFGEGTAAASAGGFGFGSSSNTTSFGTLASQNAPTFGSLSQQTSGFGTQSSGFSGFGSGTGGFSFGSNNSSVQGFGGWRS

Row | effect of a mutation on the interaction | Substance
1 | decreasing interaction | Nuclear pore complex protein Nup214 (Homo sapiens), P35658-1 V353A
2 | disrupting interaction | Nuclear pore complex protein Nup214 (Homo sapiens), P35658-1 D359R
